Measurements reported in PMC9482650, “Quantitative fragmentomics allow affinity mapping of interactomes” (Nature Communications, 2022).

T1: LNX2_2, Q8N448
T1 sequence (Q8N448 334-432, limits assumed, looked up): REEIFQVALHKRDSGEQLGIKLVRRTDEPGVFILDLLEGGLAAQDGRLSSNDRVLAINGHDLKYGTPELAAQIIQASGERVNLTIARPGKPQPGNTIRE

T2: APBA1_2, Q02410
T2 sequence (Q02410 742-832, limits assumed, looked up): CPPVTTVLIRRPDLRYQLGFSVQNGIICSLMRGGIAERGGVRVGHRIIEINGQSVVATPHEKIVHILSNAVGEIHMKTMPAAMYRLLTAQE

T3: PARD3B_1, Q8TEW8
T3 sequence (Q8TEW8 196-299, limits assumed, looked up): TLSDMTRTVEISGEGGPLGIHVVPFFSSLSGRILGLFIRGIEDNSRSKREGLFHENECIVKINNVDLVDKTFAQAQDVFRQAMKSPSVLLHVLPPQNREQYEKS

T4: GRIP1_5, Q9Y3R0
T4 sequence (Q9Y3R0 568-668, limits assumed, looked up): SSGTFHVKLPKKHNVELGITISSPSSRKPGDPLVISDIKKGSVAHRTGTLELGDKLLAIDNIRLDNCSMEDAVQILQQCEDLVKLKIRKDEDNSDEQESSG

T5: GRIP1_4, Q9Y3R0
T5 sequence (Q9Y3R0 467-571, limits assumed, looked up): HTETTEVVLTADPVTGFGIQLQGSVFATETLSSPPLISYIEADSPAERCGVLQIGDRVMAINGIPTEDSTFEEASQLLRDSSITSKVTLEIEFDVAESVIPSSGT

T6: PDZD7_3, Q9H5P4
T6 sequence (Q9H5P4 857-944, limits assumed, looked up): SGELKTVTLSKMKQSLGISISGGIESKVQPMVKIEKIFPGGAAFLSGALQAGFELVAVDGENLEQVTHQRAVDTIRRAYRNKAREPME

T7: SHANK1, Q9Y566
T7 sequence (Q9Y566 658-767, limits assumed, looked up): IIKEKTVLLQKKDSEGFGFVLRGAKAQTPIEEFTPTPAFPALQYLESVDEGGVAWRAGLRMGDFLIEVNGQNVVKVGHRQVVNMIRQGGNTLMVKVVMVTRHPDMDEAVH

T8: MPDZ_5, O75970
T8 sequence (O75970 695-796, limits assumed, looked up): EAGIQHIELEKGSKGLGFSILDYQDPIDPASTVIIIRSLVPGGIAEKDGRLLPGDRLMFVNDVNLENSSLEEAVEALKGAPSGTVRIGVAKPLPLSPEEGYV

T9: DFNB31_3, Q9P202
T9 sequence (Q9P202 811-907, limits assumed, looked up): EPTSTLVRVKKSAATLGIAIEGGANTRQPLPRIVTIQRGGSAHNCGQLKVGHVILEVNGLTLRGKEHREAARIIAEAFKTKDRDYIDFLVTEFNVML

T10: SIPA1L2, Q9P2F8
T10 sequence (Q9P2F8 945-1036, limits assumed, looked up): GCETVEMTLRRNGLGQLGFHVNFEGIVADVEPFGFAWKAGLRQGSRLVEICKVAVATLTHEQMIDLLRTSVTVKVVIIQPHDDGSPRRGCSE

T11: FRMPD1, Q5SYB0
T11 sequence (Q5SYB0 52-145, limits assumed, looked up): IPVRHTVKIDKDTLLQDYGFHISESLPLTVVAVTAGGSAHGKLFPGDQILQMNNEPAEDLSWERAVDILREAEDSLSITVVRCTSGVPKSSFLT


Assays:
Experiment in all cases: holdup assay
Parameters in all cases: key: below the threshold = too weak to quantify, mostly under pKd 3.1 to 4
Settings in all cases: plain residues with an end cap or a label only (N-terminal biotin on a linker: ttds)
[1] = biological target: T1, LNX2_2, Q8N448
[2] = biological target: T2, APBA1_2, Q02410
[3] = biological target: T3, PARD3B_1, Q8TEW8
[4] = biological target: FRMPD4, Q14CM0
[5] = biological target: T4, GRIP1_5, Q9Y3R0
[6] = biological target: T5, GRIP1_4, Q9Y3R0
[7] = biological target: T6, PDZD7_3, Q9H5P4
[8] = biological target: T7, SHANK1, Q9Y566
[9] = biological target: NHERF4_2, Q86UT5
[10] = biological target: FRMPD2_1, Q68DX3
[11] = biological target: Inadl_4, Q8NI35
[12] = biological target: Inadl_1, Q8NI35
[13] = biological target: PTPN3, P26045
[14] = biological target: FRMPD3, Q5JV73
[15] = biological target: PDLIM1, O00151
[16] = biological target: Inadl_10, Q8NI35
[17] = biological target: PDZRN4_1, Q6ZMN7
[18] = biological target: T8, MPDZ_5, O75970
[19] = biological target: T9, DFNB31_3, Q9P202
[20] = biological target: NOS1, P29475
[21] = biological target: Inadl_6, Q8NI35
[22] = biological target: T10, SIPA1L2, Q9P2F8
[23] = biological target: MAGI3_2, Q5TCQ9
[24] = biological target: MAGI2_3, Q86UL8
[25] = biological target: LNX1_3, Q8TBB1
[26] = biological target: T11, FRMPD1, Q5SYB0
[27] = biological target: DLG2_3, Q15700

Sequence of FRMPD2_1, Q68DX3 (Q68DX3 770-861): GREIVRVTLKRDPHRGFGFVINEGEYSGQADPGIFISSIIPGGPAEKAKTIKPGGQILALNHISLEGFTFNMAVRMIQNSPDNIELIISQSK
Sequence of Inadl_1, Q8NI35 (Q8NI35 113-229): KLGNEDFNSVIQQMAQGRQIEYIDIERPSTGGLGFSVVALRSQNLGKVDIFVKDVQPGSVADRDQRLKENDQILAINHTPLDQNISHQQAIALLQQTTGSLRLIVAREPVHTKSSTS
Sequence of MAGI2_3, Q86UL8 (Q86UL8 600-682): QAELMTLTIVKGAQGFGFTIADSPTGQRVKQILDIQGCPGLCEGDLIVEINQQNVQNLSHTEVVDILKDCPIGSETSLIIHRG
Sequence of Inadl_4, Q8NI35 (Q8NI35 547-651): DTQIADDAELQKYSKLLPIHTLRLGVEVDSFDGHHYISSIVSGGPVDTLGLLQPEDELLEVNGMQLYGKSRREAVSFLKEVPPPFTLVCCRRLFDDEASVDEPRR
Sequence of LNX1_3, Q8TBB1 (Q8TBB1 500-596): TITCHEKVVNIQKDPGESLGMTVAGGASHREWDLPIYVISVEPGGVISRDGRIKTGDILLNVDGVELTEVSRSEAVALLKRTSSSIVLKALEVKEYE
Sequence of PTPN3, P26045 (P26045 505-587): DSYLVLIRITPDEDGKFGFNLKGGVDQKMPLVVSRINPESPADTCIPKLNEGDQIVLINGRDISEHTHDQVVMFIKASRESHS
Sequence of PDLIM1, O00151 (O00151 1-87): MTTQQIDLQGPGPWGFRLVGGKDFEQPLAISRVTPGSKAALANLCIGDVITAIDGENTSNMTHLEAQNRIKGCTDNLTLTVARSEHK
Sequence of FRMPD3, Q5JV73 (Q5JV73 12-100): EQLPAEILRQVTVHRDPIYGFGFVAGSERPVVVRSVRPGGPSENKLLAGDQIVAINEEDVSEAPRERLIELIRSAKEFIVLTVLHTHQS
Sequence of NOS1, P29475 (P29475 9-101): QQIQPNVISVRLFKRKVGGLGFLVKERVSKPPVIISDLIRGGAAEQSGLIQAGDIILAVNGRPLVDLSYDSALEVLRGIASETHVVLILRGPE
Sequence of Inadl_10, Q8NI35 (Q8NI35 1673-1763): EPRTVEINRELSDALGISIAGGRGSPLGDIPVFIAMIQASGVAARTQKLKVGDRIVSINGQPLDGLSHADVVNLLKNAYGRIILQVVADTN
Sequence of MAGI3_2, Q5TCQ9 (Q5TCQ9 398-503): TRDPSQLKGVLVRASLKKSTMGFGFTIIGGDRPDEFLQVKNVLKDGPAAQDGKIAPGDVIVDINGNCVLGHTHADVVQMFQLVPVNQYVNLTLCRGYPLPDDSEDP
Sequence of PDZRN4_1, Q6ZMN7 (Q6ZMN7 213-318): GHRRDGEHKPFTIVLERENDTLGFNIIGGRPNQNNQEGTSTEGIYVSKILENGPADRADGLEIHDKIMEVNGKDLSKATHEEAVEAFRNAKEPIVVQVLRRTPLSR
Sequence of NHERF4_2, Q86UT5 (Q86UT5 220-308): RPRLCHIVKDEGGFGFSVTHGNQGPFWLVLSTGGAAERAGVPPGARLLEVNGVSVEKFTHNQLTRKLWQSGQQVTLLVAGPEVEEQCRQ
Sequence of FRMPD4, Q14CM0 (Q14CM0 67-160): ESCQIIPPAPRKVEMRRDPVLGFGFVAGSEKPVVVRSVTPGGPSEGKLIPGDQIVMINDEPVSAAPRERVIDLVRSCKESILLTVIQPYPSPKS
Sequence of Inadl_6, Q8NI35 (Q8NI35 1058-1167): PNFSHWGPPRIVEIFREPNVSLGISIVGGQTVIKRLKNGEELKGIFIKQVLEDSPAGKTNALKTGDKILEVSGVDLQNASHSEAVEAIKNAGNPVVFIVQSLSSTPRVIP

Row | pKd [1] | pKd [2] | pKd [3] | pKd [4] | pKd [5] | pKd [6] | pKd [7] | pKd [8] | pKd [9] | pKd [10] | pKd [11] | pKd [12] | pKd [13] | pKd [14] | pKd [15] | pKd [16] | pKd [17] | pKd [18] | pKd [19] | pKd [20] | Binder | further results
1 | 4.25 | 4.02 | 3.72 | below the threshold | 3.72 | below the threshold | 5.1 | 4.35 | below the threshold | below the threshold | below the threshold | 3.77 | 3.94 | below the threshold | below the threshold | 3.58 | 3.62 | 3.46 | 3.71 | below the threshold | DEDQHTQITKV [PTEN, P60484] | pKd [21]: 3.82; pKd [22]: below the threshold; pKd [23]: 4.03; pKd [24]: 4.64; pKd [25]: below the threshold; pKd [26]: below the threshold; pKd [27]: below the threshold
2 | 3.6 | below the threshold | 4.4 | below the threshold | 3.52 | below the threshold | 4.93 | 4.17 | below the threshold | below the threshold | below the threshold | below the threshold | 3.93 | below the threshold | 3.49 | below the threshold | 4.13 | 3.61 | 4.14 | 3.7 | RRVRKLPSTTL [RPS6KA1, Q15418] | pKd [21]: below the threshold; pKd [22]: below the threshold; pKd [23]: 4.23; pKd [24]: 3.63; pKd [25]: 3.66; pKd [26]: below the threshold; pKd [27]: 3.49
3 | 4.13 | below the threshold | below the threshold | below the threshold | 3.55 | below the threshold | 4.27 | below the threshold | below the threshold | below the threshold | below the threshold | below the threshold | 3.8 | below the threshold | below the threshold | below the threshold | below the threshold | 3.53 | below the threshold | below the threshold | CNTVTVETVV [MAS1, P04201] | pKd [21]: below the threshold; pKd [22]: below the threshold; pKd [23]: 3.78; pKd [24]: 3.63; pKd [25]: below the threshold; pKd [26]: below the threshold; pKd [27]: below the threshold
4 | below the threshold | below the threshold | 3.95 | 4.66 | below the threshold | below the threshold | 4.23 | 5.07 | below the threshold | below the threshold | below the threshold | below the threshold | 4.21 | below the threshold | below the threshold | below the threshold | 3.99 | below the threshold | below the threshold | 3.53 | TEEEVQDTRL [CFTR, P13569] | pKd [21]: below the threshold; pKd [22]: below the threshold; pKd [23]: below the threshold; pKd [24]: below the threshold; pKd [25]: below the threshold; pKd [26]: below the threshold; pKd [27]: below the threshold
5 | below the threshold | 4.08 | 3.7 | 4.35 | below the threshold | below the threshold | 4.62 | 3.81 | below the threshold | 4.05 | below the threshold | 4.12 | 5.42 | below the threshold | 3.73 | below the threshold | 5.47 | below the threshold | below the threshold | 4.41 | NYWPGKETQL [SLCO1C1, Q9NYB5] | pKd [21]: 4.61; pKd [22]: below the threshold; pKd [23]: 4.75; pKd [24]: below the threshold; pKd [25]: below the threshold; pKd [26]: below the threshold; pKd [27]: 4.69
